Measurements reported in article PMC4333385.

Tested on: Nc1ncnc2c1ncn2[C@@H]1O[C@H](COP(=O)(O)OP(=O)(O)OP(=O)(O)O)[C@@H](O)[C@H]1O
Experiment: steady-state Pi release, MDCC-PBP stopped-flow, Hill fit
Type: biochemical, Escherichia coli
Settings: DNA-free RecQ, SF50 buffer pH 7.5, 5 mM MgCl2, 50 mM NaCl, 25 °C, Hill coefficient 1.3
Excerpt: steady-state Pi release, MDCC-PBP stopped-flow, Hill fit on E. coli RecQ helicase

E. coli RecQ helicase (Escherichia coli K-12)
K0.5: 28 ± 2 µM
kcat: 0.53 ± 0.05 s⁻¹
